According to PMC6049852, “Comprehensive investigation of a dye-decolorizing peroxidase and a manganese peroxidase from Irpex lacteus F17, a lignin-degrading basidiomycete” (AMB Express, 2018):

Key:
Assay in all cases: purified protein
purified protein [1] = substrate: COc1ccccc1O; settings: pH 4, 45 °C, error = 95% confidence limits
purified protein [2] = substrate: COc1ccc(CO)cc1OC; type: biochemical, Irpex lacteus; settings: 0.1 mM H2O2, 0.1 M sodium tartrate, pH 3.5, 45 °C, error = 95% confidence limits
purified protein [3] = substrate: Nc1c(S(=O)(=O)O)cc(Nc2cccc(S(=O)(=O)CCOS(=O)(=O)O)c2)c2c1C(=O)c1ccccc1C2=O; type: biochemical, Irpex lacteus; settings: error = 95% confidence limits
purified protein [4] = substrate: CCn1c(=NN=c2sc3cc(S(=O)(=O)O)ccc3n2CC)sc2cc(S(=O)(=O)O)ccc21; type: biochemical, Irpex lacteus; settings: error = 95% confidence limits
purified protein [5] = substrate: Nc1c(N=Nc2ccc(S(=O)(=O)CCOS(=O)(=O)O)cc2)c(S(=O)(=O)O)cc2cc(S(=O)(=O)O)c(N=Nc3ccc(S(=O)(=O)CCOS(=O)(=O)O)cc3)c(O)c12; type: biochemical, Irpex lacteus; settings: error = 95% confidence limits
purified protein [6] = substrate: COc1cccc(OC)c1O; type: biochemical, Irpex lacteus; settings: error = 95% confidence limits
[7] = 0.1 mM H2O2, 0.1 M sodium tartrate
[8] = 0.1 mM H2O2, 0.1 M sodium tartrate, pH 4.5, 35 °C
[9] = 0.1 mM H2O2, 0.1 M sodium tartrate, pH 3.5, 35 °C
[10] = 0.1 mM H2O2, 0.1 M sodium tartrate, pH 4, 35 °C
[11] = 0.1 mM H2O2, 1 mM Mn2+, 0.1 M sodium tartrate
[12] = 0.1 mM H2O2, 1 mM Mn2+, 0.1 M sodium tartrate, pH 3, 35 °C
[13] = 0.1 mM H2O2, 1 mM Mn2+, 0.1 M sodium tartrate, pH 3.5, 45 °C
[14] = 0.1 mM H2O2, 1 mM Mn2+, 0.1 M sodium tartrate, pH 4.5, 55 °C

B1: Il-DyP4 (Irpex lacteus) (protein)
chain: SAGNDSLPFENIQGDILVGMKKDKEKFVFFHINNATAFKSVLKTYAPANITSVATIIGPVANQPLAFVNLAFSHAGFGALNVTDDLQDTAFSDGQFKDSPNLGDDTSTWEEAFKGTNVDGVFLIGSNDESITAQYRDDLNAKFGDAWTIVYDLDSAARPGNEKGHEHFGYLDGISNPTIPGFGTPHPGQAVVDPGIIFTGRSKDPVMNRPSWALDGSFLVFRKLKQLVPEFNKYVLDNALQNQAGNLTVEEGAELLGSRMFGRWKSGAPIDLSPDFDDPALGNDIERNNNFNYSHPGSDLATDQTRCPFTAHIRKTNPRDLEGQGLFGDTFHAIRAGTPYGPEVTDYEASSNTTTIDRGLAFVEYQSVIGNGFRFQQQAWANNPRFPFSKGPSIQLGLDPVIGQGSPRETFGLDPRNASESFTVPQVIISNGGEYFFSPSITAIVEKFAA
notes: 502 aa given, 52-aa signal peptide stated
- Km (purified protein [1]; [7]): 24 ± 7.5 µM
- kcat (purified protein [1]; [7]): 413 ± 34 s⁻¹
- kcat/Km (purified protein [1]; [7]): (1.7 ± 0.1) × 10^7 s^-1M^-1
- Km (purified protein [2]): (2.1 ± 0.98) × 10^4 μM
- kcat (purified protein [2]): 108 ± 47 s⁻¹
- kcat/Km (purified protein [2]): (5.2 ± 2.3) × 10^3 s^-1M^-1
- Km (purified protein [3]; [8]): 133 ± 34 µM
- kcat (purified protein [3]; [8]): 5345 ± 921 s⁻¹
- kcat/Km (purified protein [3]; [8]): (4.0 ± 0.7) × 10^7 s^-1M^-1
- Km (purified protein [4]; [9]): 62 ± 11 µM
- kcat (purified protein [4]; [9]): 8356 ± 747 s⁻¹
- kcat/Km (purified protein [4]; [9]): (1.3 ± 0.1) × 10^8 s^-1M^-1
- Km (purified protein [5]; [10]): 159 ± 61 µM
- kcat (purified protein [5]; [10]): 267 ± 96 s⁻¹
- kcat/Km (purified protein [5]; [10]): (1.7 ± 0.6) × 10^6 s^-1M^-1
- Km (purified protein [6]; [10]): 58 ± 3 µM
- kcat (purified protein [6]; [10]): 4896 ± 131 s⁻¹
- kcat/Km (purified protein [6]; [10]): (8.4 ± 0.2) × 10^7 s^-1M^-1

B2: Il-MnP6 (Irpex lacteus) (protein)
chain: TKRVACPDGKNTATNAACCALFAIRDDIQENLFDGGQCGEEVHESFRLTFHDAIGIGSNGGGGADGSIAVFEAIETAFHANNGVDEIIDEQKPFIARHNITPGDFIQFAGAVGVSNCPGAPRLDFFLGRPNPVAPAPDKTVPEPFDSVTSILARFKDAGNFSPEEVVALLGSHTIAAADHVDPTIPGTPFDSTPEVFDTQVFLEVQLRGTLFPGTAGNQGEVQSPLRGEIRLQSDHDLARDQRTACEWQSFVNNQAKLQRNFKAAFKKLSILGHDERRLIDCSEVIPEPPNVKVKPATFPAGLSNKDVEQACRATPFPTLPTDPGPSTSVAPVPPS
notes: 359 aa printed, predicted 23-aa signal peptide; short-type MnP
- Km (purified protein [1]; [11]): 2.6 ± 0.6 µM
- kcat (purified protein [1]; [11]): 184 ± 7 s⁻¹
- kcat/Km (purified protein [1]; [11]): (7.1 ± 0.3) × 10^7 s^-1M^-1
- Km (purified protein [3]; [12]): 81 ± 39.5 µM
- kcat (purified protein [3]; [12]): 7.3 ± 2.6 s⁻¹
- kcat/Km (purified protein [3]; [12]): (9.0 ± 3.2) × 10^4 s^-1M^-1
- Km (purified protein [4]; [13]): 83 ± 6.5 µM
- kcat (purified protein [4]; [13]): 245 ± 7 s⁻¹
- kcat/Km (purified protein [4]; [13]): (3.0 ± 0.09) × 10^6 s^-1M^-1
- Km (purified protein [5]; [12]): 4.4 ± 0.7 µM
- kcat (purified protein [5]; [12]): 0.06 ± 0.003 s⁻¹
- kcat/Km (purified protein [5]; [12]): (1.5 ± 0.07) × 10^4 s^-1M^-1
- Km (purified protein [6]; [14]): 53 ± 8.6 µM
- kcat (purified protein [6]; [14]): 989 ± 100 s⁻¹
- kcat/Km (purified protein [6]; [14]): (1.9 ± 0.2) × 10^7 s^-1M^-1
